# Measurements as given in patent US6358738 (Harvard, dated 2002).
# B1: HA-Plk (protein)
# chain: MNAAAKAGKLARAPADLGKGGVPGDAVPGAPVAAPLAKEIPEVLVDPRSRRQYVRGRFLGKGGFAKCFEISDADTKEVFAGKIVPKSLLLKPHQKEKMSMEISIHRSLAHQHVVGFHDFFEDSDFVFVVLELCRRRSLLELHKRRKALTEPEARYYLRQIVLGCQYLHRNQVIHRDLKLGNLFLNEDLEVKIGDFGLATKVEYEGERKKTLCGTPNYIAPEVLSKKGHSFEVDVWSIGCIMYTLLVGKPPFETSCLKETYLRIKKNEYSIPKHINPVAASLIQKMLQTDPTARPTIHELLNDEFFTSGYIPARLPITCLTIPPRFSIAPSSLDPSSRKPLKVLNKGVENPLPDRPREKEEPVVRETNEAIECHLSDLLQQLTSVNASKPSERGLVRQEEAEDPACIPIFWVSKWVDYSDKYGLGYQLCDNSVGVLFNDSTRLILYNDGDSLQYIERDGTESYLTVSSHPNSLMKKITLLNYFRNYMSEHLLKAGANITPREGDELARLPYLRTWFRTRSAIILHLSNGTVQINFFQDHTKLILCPLMAAVTYINEKRDFQTYRLSLLEEYGCCKELASRLRYARTMVDKLLSSRSASNRLKAS
# B2: chaperonin-containing-TCP (CCT) epsilon subunit, amino acid residues 13-139, two-hybrid prey clone (other, not shown: large carriers)
# chain: GRPFLIIKDQDRKSRLMGLEALKSHIMAAKAVANTMRTSLGPNGLDKMMVDKDGDVTITNDGATILSMMDVDHQIAKLMVELSKSQDDEIGDGTTGVVVLAGALLEEAEQLLDRGIHPIRIADGYEQ
# notes: also called CCT-ε
# B3: Plk 500-603 (two-hybrid prey clone) (other, not shown: large carriers)
# chain: REGDELARLPYLRTWFRTRSAIILHLSNGTVQINFFQDHTKLILCPLMAAVTYINEKRDFQTYRLSLLEEYGCCKELASRLRYARTMVDKLLSSRSASNRLKAS
# B4: GST-fusion protein of full-length TCTP/p23 (other)
# chain: MIIYRDLISHDEMFSDIYKIREIADGLCLEVEGKMVSRTEGNIDDSLIGGNASAEGPEGEGTESTVITGVDIVMNHHLGETSFTKEAYKKYIKDYMKSIKGKLEEGRPERVKPFMTGAAEGIKHILANFKNYGFFIGENMNPDGMVALLDYREDGVTPYMIFFKDGLEMEKC
# notes: Full-length TCTP/p23 cDNA cloned into a pGEX vector to produce a GST-fusion protein; also called GST-TCTP/p23; not shown: glutathione-S-transferase (GST) from pGEX vector
# How the values were obtained:
# [1] = molecular target: T1, GST-fusion protein of full-length TCTP/p23
# T1 chain: B4 chain
# [2] = molecular target: T2, Plk 323-499 (two-hybrid bait, wild-type polo box) (murine (mammalian Plk), UniProt Q07832 323-499); experiment: yeast two-hybrid
# T2 construct: Bait fusion expressed in yeast
# [3] = molecular target: T2, Plk 323-499 (two-hybrid bait, wild-type …); experiment: yeast two-hybrid screen, mouse embryo cDNA library
# Excerpt: Using the terminology of the two-hybrid system (Vojtek et al., 1993), vectors were engineered to have Plk carboxy terminal constructs as bait (see FIG. 11) and a mouse embryo 9.5/10.5-day cDNA library as prey. (A different strategy was used to identify TCTP/p23, i.e., full length Plk and a cDNA library from HeLa cells with inserts of 1–2 kb in the Examples, infra).
# [4] = molecular target: HA-Snk (UniProt P53351 1-682); experiment: interaction of recombinant proteins produced in insect cells with baculovirus (GST-fusion)
# HA-Snk, sequence (P53351 whole entry, the tested form may be a part): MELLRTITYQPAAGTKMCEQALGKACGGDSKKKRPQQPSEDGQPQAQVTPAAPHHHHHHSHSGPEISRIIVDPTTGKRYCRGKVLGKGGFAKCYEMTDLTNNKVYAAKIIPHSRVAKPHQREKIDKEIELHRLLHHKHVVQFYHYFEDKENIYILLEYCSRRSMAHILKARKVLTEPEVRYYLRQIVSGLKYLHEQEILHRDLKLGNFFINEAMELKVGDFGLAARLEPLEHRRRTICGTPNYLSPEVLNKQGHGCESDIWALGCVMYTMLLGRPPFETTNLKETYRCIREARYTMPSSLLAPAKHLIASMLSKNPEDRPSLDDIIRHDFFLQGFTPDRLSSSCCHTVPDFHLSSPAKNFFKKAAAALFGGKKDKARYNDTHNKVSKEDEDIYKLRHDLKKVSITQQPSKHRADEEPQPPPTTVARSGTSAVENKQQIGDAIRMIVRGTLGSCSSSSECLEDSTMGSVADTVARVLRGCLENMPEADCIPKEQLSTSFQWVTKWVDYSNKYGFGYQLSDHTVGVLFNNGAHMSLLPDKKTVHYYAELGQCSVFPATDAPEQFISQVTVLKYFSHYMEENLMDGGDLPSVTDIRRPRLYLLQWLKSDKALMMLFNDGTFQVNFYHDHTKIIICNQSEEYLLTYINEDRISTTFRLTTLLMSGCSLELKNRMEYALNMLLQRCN
# Excerpt: Full-length TCTP/p23 (SEQ ID No:27) cDNA was isolated and cloned into a pGEX vector to produce a GST-fusion protein.
binder,measurement,setting,value
B1,phosphorylation of TCTP/p23 by Plk kinase activity,[1],phosphorylated by Plk on serine residues at positions 46 and 64
B2,binding result,[2],binds
B3,binding result,[3],binds
B4,binding result,[4],no binding
